This note sets out measurements from patent US7144731B2, “SCF antibody compositions and methods of using the same” (Amgen Inc., priority 1989, dated 2006).

Assay [1] has as its system COS-1 cells (endogenous c-kit). Briefly: ^125I-SCF^1-164 binding to COS-1 cells transfected with V19.8 alone. From the text: To test whether SCF^1-164 is the ligand for c-kit, the cDNA for the entire murine c-kit [Qiu et al., EMBO J., 7, 1003–1011 (1988)] was amplified using PCR from the SCF^1-164 responsive mast cell line MC/9 [Nabel et al., Nature, 291, 332–334 (1981)] with primers designed from the published sequence. The ligand binding and transmembrane domains of human c-kit, encoded by amino acids 1–549 [Yarden et al., EMBO J., 6, 3341–3351 (1987)], were cloned using similar techniques from the human erythroleukemia cell line, HEL [Martin and Papayannopoulou, Science, 216, 1233–1235 (1982)]. The c-kit cDNAs were inserted into the mammalian expression vector V19.8 transfected into COS-1 cells, and membrane fractions prepared for binding assays using either rat or human ^125I-SCF^1-164 according to the methods described in Sections B and C below. […] There was no detectable specific binding of ^125I human SCF^1-164 to COS-1 cells transfected with V19.8 alone. However, COS-1 cells expressing human recombinant c-kit ligand binding plus transmembrane domains (hckit-LT1) did bind ^125I-hSCF^1-164 (Table 17). The addition of a 200 fold molar excess of unlabelled human SCF^1-164 reduced binding to background levels. […]
Two days after transfection, the COS-1 cells were scraped from the dish, washed in PBS, and frozen until use. […] The pellets were clipped off and membrane associated ^125I-SCF^1-164 was quantitated.

Assay [2] deals with Steel-Dickie (S1/S1^d) mice. Briefly: In vivo activity in Steel-Dickie mice. Also on record: species or system mouse. The note with it: 100 μg/kg/day 30 days then 30 μg/kg/day 20 days, s.c. As for the experimental part:
Steel mice provide a sensitive in vivo model for SCF activity. Different recombinant SCF proteins were tested in Steel-Dickie (S1/S1^d) mice for varying lengths of time. Six to ten week old Steel mice (WCB6F1-S1/S1^d) were purchased from Jackson Labs, Bar Harbor, Me. Peripheral blood was monitored by a SYSMEX F-800 microcell counter (Baxter, Irvine, Calif.) for red cells, hemoglobin, and platelets. For enumeration of peripheral white blood cell (WBC) numbers, a Coulter Channelyzer 256 (Coulter Electronics, Marietta, Ga.) was used.
In the experiment in FIG. 24, Steel-Dickie mice were treated with E. coli derived SCF^1-164, purified as in Example 10, at a dose of 100 μg/kg/day for 30 days, then at a dose of 30 μg/kg/day for an additional 20 days. The protein was formulated in injectable saline (Abbott Labs, North Chicago, Ill.) +0.1% fetal bovine serum. The injections were performed daily, subcutaneously. The peripheral blood was monitored via tail bleeds of ˜50 μl at the indicated times in FIG. 24. The blood was collected into 3% EDTA coated syringes and dispensed into powdered EDTA microfuge tubes (Brinkmann, Westbury, N.Y.). […]
Whole blood was stained for T lymphocyte subsets as follows. […] Each sample of blood was then analyzed on a FACScan cell analysis system (Becton Dickinson, Mountain View, Calif.). […]

B1: rrSCF^1-164: recombinant rat SCF^1-164 from E. coli, also used ^125I-labelled (protein)
chain: QEICRNPVTDNVKDITKLVANLPNDYMITLNYVAGMDVLPSHCWLRDMVTHLSVSLTTLLDKFSNISEGLSNYSIIDKLGKIVDDLVACMEENAPKNVKESLKKPETRNFTPEEFFSIFNRSIDAFKDFMVASDTSDCVLSSTLGPEKDSRVSVTKPFMLPPVA
As to B1, the “CPM Bound, ^125I-SCF + cold” value in assay [1] (1.6 nM ^125I-SCF^1-164 + 320 nM unlabelled SCF^1-164, V19.8) was 550 CPM. Also, the “CPM Bound, ^125I-SCF” value in assay [1] (1.6 nM ^125I-SCF^1-164, plasmid V19.8) is listed as 1,100 CPM. Also, the “macrocytic anemia (hematocrit, mean red cell volume)” value in assay [2] is reported as “significant correction of the macrocytic anemia”.
